Measurements published in publication PMC9482650, “Quantitative fragmentomics allow affinity mapping of interactomes” (Nature Communications, 2022).

Key:
Experiment in all cases: holdup assay
Parameters in all cases: key: below the threshold = too weak to quantify, mostly under pKd 3.1 to 4
TJP1_3, Q07157 = target: TJP1_3, Q07157
GRIP2_7, Q9C0E4 = target: GRIP2_7, Q9C0E4
SNTG2, Q9NY99 = target: T1, SNTG2, Q9NY99
T1 sequence (Q9NY99 68-166, limits assumed, looked up): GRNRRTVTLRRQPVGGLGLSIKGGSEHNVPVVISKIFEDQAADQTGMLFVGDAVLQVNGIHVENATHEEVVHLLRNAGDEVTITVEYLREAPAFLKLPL

DLG1_3, Q12959 = target: DLG1_3, Q12959
PICK1, Q9NRD5 = target: PICK1, Q9NRD5
Sequence of PICK1, Q9NRD5 (Q9NRD5 17-115): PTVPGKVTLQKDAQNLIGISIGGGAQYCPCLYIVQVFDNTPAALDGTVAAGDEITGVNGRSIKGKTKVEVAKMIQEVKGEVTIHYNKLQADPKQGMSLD

DLG3_3, Q92796 = target: T2, DLG3_3, Q92796
T2 sequence (Q92796 374-475, limits assumed, looked up): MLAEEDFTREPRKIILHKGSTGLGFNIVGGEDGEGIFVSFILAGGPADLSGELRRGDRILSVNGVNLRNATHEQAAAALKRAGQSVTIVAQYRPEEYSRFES

FRMPD4, Q14CM0 = target: FRMPD4, Q14CM0
Sequence of FRMPD4, Q14CM0 (Q14CM0 67-160): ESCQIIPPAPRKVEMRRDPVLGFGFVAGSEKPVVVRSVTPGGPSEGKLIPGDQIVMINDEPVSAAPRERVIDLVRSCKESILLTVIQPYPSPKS

GRIP2_3, Q9C0E4 = target: GRIP2_3, Q9C0E4
Sequence of GRIP2_3, Q9C0E4 (Q9C0E4 238-339): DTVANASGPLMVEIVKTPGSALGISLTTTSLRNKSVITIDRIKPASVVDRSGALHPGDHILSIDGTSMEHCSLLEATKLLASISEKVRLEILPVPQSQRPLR

DLG2_2, Q15700 = target: DLG2_2, Q15700
Sequence of DLG2_2, Q15700 (Q15700 189-283): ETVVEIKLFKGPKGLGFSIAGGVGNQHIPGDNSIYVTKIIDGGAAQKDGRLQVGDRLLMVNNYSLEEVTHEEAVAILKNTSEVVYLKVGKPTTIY

TX1BP3, O14907 = target: T3, TX1BP3, O14907
T3 sequence (O14907 10-122, limits assumed, looked up): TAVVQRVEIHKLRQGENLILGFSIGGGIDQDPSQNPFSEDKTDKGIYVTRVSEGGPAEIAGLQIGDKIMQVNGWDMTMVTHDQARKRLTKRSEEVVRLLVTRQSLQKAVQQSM

PCLO, Q9Y6V0 = target: T4, PCLO, Q9Y6V0
T4 sequence (Q9Y6V0 4491-4600, limits assumed, looked up): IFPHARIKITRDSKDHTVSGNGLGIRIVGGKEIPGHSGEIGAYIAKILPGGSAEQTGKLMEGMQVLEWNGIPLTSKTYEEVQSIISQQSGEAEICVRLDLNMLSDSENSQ

ARHGAP21, Q5T5U3 = target: T5, ARHGAP21, Q5T5U3
T5 sequence (Q5T5U3 45-169, limits assumed, looked up): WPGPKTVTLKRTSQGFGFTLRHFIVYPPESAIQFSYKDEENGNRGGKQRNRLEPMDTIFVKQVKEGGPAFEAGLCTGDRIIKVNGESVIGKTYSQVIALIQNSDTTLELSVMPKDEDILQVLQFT

GRIP2_5, Q9C0E4 = target: GRIP2_5, Q9C0E4
Sequence of GRIP2_5, Q9C0E4 (Q9C0E4 544-642): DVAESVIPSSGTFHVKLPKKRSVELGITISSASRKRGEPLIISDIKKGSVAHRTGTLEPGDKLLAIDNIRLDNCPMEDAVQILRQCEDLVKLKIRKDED

LIN7A, O14910 = target: T6, LIN7A, O14910
T6 sequence (O14910 103-200, limits assumed, looked up): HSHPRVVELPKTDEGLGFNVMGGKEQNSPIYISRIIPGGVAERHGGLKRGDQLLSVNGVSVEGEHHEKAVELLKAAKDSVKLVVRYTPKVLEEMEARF

MAGI3_2, Q5TCQ9 = target: MAGI3_2, Q5TCQ9
Sequence of MAGI3_2, Q5TCQ9 (Q5TCQ9 398-503): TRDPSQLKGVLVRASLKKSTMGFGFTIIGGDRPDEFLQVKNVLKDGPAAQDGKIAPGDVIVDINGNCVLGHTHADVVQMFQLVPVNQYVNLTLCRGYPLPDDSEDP

PDZD7_3, Q9H5P4 = target: T7, PDZD7_3, Q9H5P4
T7 sequence (Q9H5P4 857-944, limits assumed, looked up): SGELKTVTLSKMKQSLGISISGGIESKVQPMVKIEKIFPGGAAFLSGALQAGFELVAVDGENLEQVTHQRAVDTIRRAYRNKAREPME

PARD3B_1, Q8TEW8 = target: T8, PARD3B_1, Q8TEW8
T8 sequence (Q8TEW8 196-299, limits assumed, looked up): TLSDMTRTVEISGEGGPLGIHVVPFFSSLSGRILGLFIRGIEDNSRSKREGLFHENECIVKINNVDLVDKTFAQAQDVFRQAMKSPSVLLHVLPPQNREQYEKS

Inadl_10, Q8NI35 = target: Inadl_10, Q8NI35
Sequence of Inadl_10, Q8NI35 (Q8NI35 1673-1763): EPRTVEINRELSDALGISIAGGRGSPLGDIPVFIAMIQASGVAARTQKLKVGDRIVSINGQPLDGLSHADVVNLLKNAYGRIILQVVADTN

Inadl_5, Q8NI35 = target: Inadl_5, Q8NI35
Sequence of Inadl_5, Q8NI35 (Q8NI35 673-780): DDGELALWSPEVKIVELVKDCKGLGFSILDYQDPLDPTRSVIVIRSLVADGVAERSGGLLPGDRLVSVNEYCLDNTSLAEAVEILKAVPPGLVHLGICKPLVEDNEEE

IL16_3, Q14005 = target: IL16_3, Q14005
Sequence of IL16_3, Q14005 (Q14005 1107-1207): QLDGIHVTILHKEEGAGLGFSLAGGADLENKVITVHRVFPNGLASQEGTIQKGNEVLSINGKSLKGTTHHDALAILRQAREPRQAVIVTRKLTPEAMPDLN

GRASP, Q7Z6J2 = target: GRASP, Q7Z6J2
Sequence of GRASP, Q7Z6J2 (Q7Z6J2 96-193): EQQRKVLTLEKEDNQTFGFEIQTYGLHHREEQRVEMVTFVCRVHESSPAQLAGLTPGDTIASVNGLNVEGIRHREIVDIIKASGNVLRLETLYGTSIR

MPDZ_5, O75970 = target: T9, MPDZ_5, O75970
T9 sequence (O75970 695-796, limits assumed, looked up): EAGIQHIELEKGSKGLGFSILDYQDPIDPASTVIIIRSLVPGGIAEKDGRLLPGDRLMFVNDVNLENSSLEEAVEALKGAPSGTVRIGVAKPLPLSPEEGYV

LDB3, O75112 = target: LDB3, O75112
Sequence of LDB3, O75112 (O75112 1-94): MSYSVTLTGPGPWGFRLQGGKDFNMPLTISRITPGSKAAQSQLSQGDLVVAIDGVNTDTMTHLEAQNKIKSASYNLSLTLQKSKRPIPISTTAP

LNX1_3, Q8TBB1 = target: LNX1_3, Q8TBB1
Sequence of LNX1_3, Q8TBB1 (Q8TBB1 500-596): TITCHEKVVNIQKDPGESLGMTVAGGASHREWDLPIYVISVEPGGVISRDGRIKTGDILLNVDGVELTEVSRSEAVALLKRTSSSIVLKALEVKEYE

DLG1_2, Q12959 = target: DLG1_2, Q12959
DLG1_1, Q12959 = target: DLG1_1, Q12959
MAST2, Q6P0Q8 = target: MAST2, Q6P0Q8
Sequence of MAST2, Q6P0Q8 (Q6P0Q8 1099-1202): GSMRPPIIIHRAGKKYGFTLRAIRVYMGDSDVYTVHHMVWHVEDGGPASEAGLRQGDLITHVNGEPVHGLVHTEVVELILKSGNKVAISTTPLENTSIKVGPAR

LIN7B, Q9HAP6 = target: T10, LIN7B, Q9HAP6
T10 sequence (Q9HAP6 88-185, limits assumed, looked up): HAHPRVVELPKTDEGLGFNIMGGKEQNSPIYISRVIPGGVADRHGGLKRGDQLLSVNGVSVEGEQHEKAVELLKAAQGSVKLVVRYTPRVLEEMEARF

[1] = plain residues with an end cap or a label only (N-terminal biotin on a linker: ttds)
[2] = plain residues with an end cap or a label only (N-terminal biotin on a linker: ahx)
[3] = plain residues with an end cap or a label only (N-terminal biotin on a linker: ado-ado)

Sequence of GRIP2_7, Q9C0E4 (Q9C0E4 934-1023): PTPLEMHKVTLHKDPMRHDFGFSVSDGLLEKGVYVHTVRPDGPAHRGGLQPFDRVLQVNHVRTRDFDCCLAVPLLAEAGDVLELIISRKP
Sequence of TJP1_3, Q07157 (Q07157 416-512): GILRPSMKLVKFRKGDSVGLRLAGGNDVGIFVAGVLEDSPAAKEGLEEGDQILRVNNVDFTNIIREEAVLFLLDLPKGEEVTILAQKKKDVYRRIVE

B1: ABRAXAS2, Q15018 (peptide)
chain: DPRNTQTSQI
TJP1_3, Q07157; [1]
  pKd: below the threshold
GRIP2_7, Q9C0E4; [1]
  pKd: 3.55
SNTG2, Q9NY99; [1]
  pKd: 3.7
DLG1_3, Q12959; [1]
  pKd: 3.52
PICK1, Q9NRD5; [1]
  pKd: below the threshold
DLG3_3, Q92796; [1]
  pKd: 3.66
FRMPD4, Q14CM0; [1]
  pKd: below the threshold
GRIP2_3, Q9C0E4; [1]
  pKd: 3.6
DLG2_2, Q15700; [1]
  pKd: below the threshold
TX1BP3, O14907; [1]
  pKd: 3.71
PCLO, Q9Y6V0; [1]
  pKd: 3.66
ARHGAP21, Q5T5U3; [1]
  pKd: below the threshold
GRIP2_5, Q9C0E4; [1]
  pKd: below the threshold
LIN7A, O14910; [1]
  pKd: below the threshold
MAGI3_2, Q5TCQ9; [1]
  pKd: below the threshold
PDZD7_3, Q9H5P4; [1]
  pKd: 4.31
PARD3B_1, Q8TEW8; [1]
  pKd: 3.69
Inadl_10, Q8NI35; [1]
  pKd: 3.52
Inadl_5, Q8NI35; [1]
  pKd: below the threshold
IL16_3, Q14005; [1]
  pKd: below the threshold
GRASP, Q7Z6J2; [1]
  pKd: 3.95
MPDZ_5, O75970; [1]
  pKd: below the threshold
LDB3, O75112; [1]
  pKd: below the threshold
LNX1_3, Q8TBB1; [1]
  pKd: below the threshold
DLG1_2, Q12959; [1]
  pKd: 3.84
DLG1_1, Q12959; [1]
  pKd: 3.49
MAST2, Q6P0Q8; [1]
  pKd: 4.55
LIN7B, Q9HAP6; [1]
  pKd: below the threshold

B2: TMEM215, Q68D42 (peptide)
chain: QGRWDHETIV
TJP1_3, Q07157; [2]
  pKd: below the threshold
GRIP2_7, Q9C0E4; [2]
  pKd: below the threshold
SNTG2, Q9NY99; [2]
  pKd: 4.58
DLG1_3, Q12959; [2]
  pKd: 3.68
PICK1, Q9NRD5; [2]
  pKd: 4.06
DLG3_3, Q92796; [2]
  pKd: 3.87
FRMPD4, Q14CM0; [2]
  pKd: 3.6
GRIP2_3, Q9C0E4; [2]
  pKd: below the threshold
DLG2_2, Q15700; [2]
  pKd: 4.07
TX1BP3, O14907; [2]
  pKd: 4.31
PCLO, Q9Y6V0; [2]
  pKd: below the threshold
ARHGAP21, Q5T5U3; [2]
  pKd: below the threshold
GRIP2_5, Q9C0E4; [2]
  pKd: below the threshold
LIN7A, O14910; [2]
  pKd: below the threshold
MAGI3_2, Q5TCQ9; [2]
  pKd: 4.66
PDZD7_3, Q9H5P4; [2]
  pKd: 4.97
PARD3B_1, Q8TEW8; [2]
  pKd: 3.57
Inadl_10, Q8NI35; [2]
  pKd: 3.64
Inadl_5, Q8NI35; [2]
  pKd: 3.63
IL16_3, Q14005; [2]
  pKd: below the threshold
GRASP, Q7Z6J2; [2]
  pKd: below the threshold
MPDZ_5, O75970; [2]
  pKd: below the threshold
LDB3, O75112; [2]
  pKd: 3.47
LNX1_3, Q8TBB1; [2]
  pKd: below the threshold
DLG1_2, Q12959; [2]
  pKd: 4.81
DLG1_1, Q12959; [2]
  pKd: 4.84
MAST2, Q6P0Q8; [2]
  pKd: 4.86
LIN7B, Q9HAP6; [2]
  pKd: below the threshold

B3: SLC23A1, Q9UHI7 (peptide)
chain: TETASVCTKV
TJP1_3, Q07157; [3]
  pKd: below the threshold
GRIP2_7, Q9C0E4; [3]
  pKd: below the threshold
SNTG2, Q9NY99; [3]
  pKd: 3.82
DLG1_3, Q12959; [3]
  pKd: below the threshold
PICK1, Q9NRD5; [3]
  pKd: 4.24
DLG3_3, Q92796; [3]
  pKd: below the threshold
FRMPD4, Q14CM0; [3]
  pKd: below the threshold
GRIP2_3, Q9C0E4; [3]
  pKd: below the threshold
DLG2_2, Q15700; [3]
  pKd: 3.99
TX1BP3, O14907; [3]
  pKd: 3.76
PCLO, Q9Y6V0; [3]
  pKd: below the threshold
ARHGAP21, Q5T5U3; [3]
  pKd: 3.94
GRIP2_5, Q9C0E4; [3]
  pKd: below the threshold
LIN7A, O14910; [3]
  pKd: below the threshold
MAGI3_2, Q5TCQ9; [3]
  pKd: 4.18
PDZD7_3, Q9H5P4; [3]
  pKd: 4.63
PARD3B_1, Q8TEW8; [3]
  pKd: 3.61
Inadl_10, Q8NI35; [3]
  pKd: 3.78
Inadl_5, Q8NI35; [3]
  pKd: below the threshold
IL16_3, Q14005; [3]
  pKd: below the threshold
GRASP, Q7Z6J2; [3]
  pKd: 4.43
MPDZ_5, O75970; [3]
  pKd: below the threshold
LDB3, O75112; [3]
  pKd: below the threshold
LNX1_3, Q8TBB1; [3]
  pKd: 3.5
DLG1_2, Q12959; [3]
  pKd: 4.4
DLG1_1, Q12959; [3]
  pKd: 3.84
MAST2, Q6P0Q8; [3]
  pKd: 5.47
LIN7B, Q9HAP6; [3]
  pKd: below the threshold

B4: HPV51-E6, P26554 (peptide)
chain: RTRQRNETQV
TJP1_3, Q07157; [1]
  pKd: below the threshold
GRIP2_7, Q9C0E4; [1]
  pKd: 3.48
SNTG2, Q9NY99; [1]
  pKd: 4.22
DLG1_3, Q12959; [1]
  pKd: 4.54
PICK1, Q9NRD5; [1]
  pKd: below the threshold
DLG3_3, Q92796; [1]
  pKd: 4.91
FRMPD4, Q14CM0; [1]
  pKd: below the threshold
GRIP2_3, Q9C0E4; [1]
  pKd: below the threshold
DLG2_2, Q15700; [1]
  pKd: 4.97
TX1BP3, O14907; [1]
  pKd: 4.13
PCLO, Q9Y6V0; [1]
  pKd: below the threshold
ARHGAP21, Q5T5U3; [1]
  pKd: below the threshold
GRIP2_5, Q9C0E4; [1]
  pKd: below the threshold
LIN7A, O14910; [1]
  pKd: below the threshold
MAGI3_2, Q5TCQ9; [1]
  pKd: 5.83
PDZD7_3, Q9H5P4; [1]
  pKd: 3.88
PARD3B_1, Q8TEW8; [1]
  pKd: below the threshold
Inadl_10, Q8NI35; [1]
  pKd: below the threshold
Inadl_5, Q8NI35; [1]
  pKd: 3.4
IL16_3, Q14005; [1]
  pKd: below the threshold
GRASP, Q7Z6J2; [1]
  pKd: below the threshold
MPDZ_5, O75970; [1]
  pKd: below the threshold
LDB3, O75112; [1]
  pKd: below the threshold
LNX1_3, Q8TBB1; [1]
  pKd: below the threshold
DLG1_2, Q12959; [1]
  pKd: 5.13
DLG1_1, Q12959; [1]
  pKd: 4.78
MAST2, Q6P0Q8; [1]
  pKd: 5.27
LIN7B, Q9HAP6; [1]
  pKd: below the threshold
